The nature of data set [1]: in vivo. Set-up: species or system C57B/L6 mice. The note with it: male, C57B/L6, mouse, iv, 1.11 MBq, total radioactivity. The protocol: The male C57B/L6 mice (6–8 weeks old, 20–25 g) were purchased from HFK bioscience (Beijing, China) and divided randomly into the experimental and blocking groups. All the studies were approved by the experimental animal ethics committee of Sichuan University and were conducted in compliance with the institutional guidelines for the care and use of laboratory animals. The C57B/L6 mice were injected subcutaneously with 5 × 10^6 B16-F10 cells in 100 µL of PBS into the forelimb of the animals under anesthesia with isoflurane. After 7–10 days, the B16F10 tumor-bearing mice were established and prepared for imaging and biodistribution when xenografts grew to 500–1000 mm^3. The B16F10 tumor-bearing mice (n = 3) were intravenously administered [^68Ga]Ga-DOTA-M2pep (1.11 MBq) for biodistribution studies. At 5, 15, 30, 60 min, and 2 h post-injection, mice were euthanized, and the organs of interest, including the blood, heart, lungs, liver, kidneys, spleen, stomach, intestine, muscle, bone, brain, and tumor, were harvested. The samples were then weighed and counted by an automatic γ-counter (PerkinElmer Wizard, Shelton, CT, USA). In the blocking group, the B16F10 tumor-bearing mice (n = 3) were pretreated with free M2pep (10 mM) in 100 μL saline by intravenous injection 60 min before administration of [^68Ga]Ga-DOTA-M2pep (1.11 MBq). The organs of interest were harvested, weighed, and counted as described above at 60 min post-injection. The percentage of tracer uptake was calculated as the percentage of injected dose per gram of tissue (%ID/g), which was decay-corrected to the start time of counting. The percentage reflected the activity associated with tissues per organ weight per actual injected dose.

A further data set is described as follows: in vitro. The settings on record: serum. Format: in vitro ADME, bovine. The protocol:
DOTA-M2pep (80 μg) was dissolved in 200 μL of purified water in a small vial. About 200 μL of [^68Ga]GaCl3 (44.4–59.2 MBq) was added, and 1 M sodium acetate buffer was used to adjust the final pH to 4.0–4.5. After incubation in a water bath at 55 °C for 30 min, the radiolabeling reaction was completed, and the mixture was collected. Radio-HPLC was performed to confirm the radiochemical purity of [^68Ga]Ga-DOTA-M2pep. The mobile phase was composed of solvent A, acetonitrile (ACN) solution, and solvent B, 0.1% trifluoroacetic acid (TFA) in water. The gradient solvent system was set up as follows: 0–8 min, 70% A and 30% B; 8–15 min, 100% A and 0% B; 15–17 min, 5% A and 95% B; 17–20 min, 95% A and 5% B at a flow rate of 1.0 mL/min. To investigate the in vitro stability, 3.7 MBq [^68Ga]Ga-DOTA-M2pep (100 μL) was incubated in the same volume of phosphate-buffered saline (PBS, pH = 7.4) or bovine serum at 37 °C, respectively. The radiochemical purity was assessed at 15, 30, 60, and 120 min. All experiments were performed in triplicate.

Data set [2] can be described thus: in vivo. The settings on record: male, C57B/L6, mouse, iv, 3.7 MBq, total radioactivity. Set-up: species or system C57B/L6 mice. The protocol:
(§1) The male C57B/L6 mice (6–8 weeks old, 20–25 g) were purchased from HFK bioscience (Beijing, China) and divided randomly into the experimental and blocking groups. All the studies were approved by the experimental animal ethics committee of Sichuan University and were conducted in compliance with the institutional guidelines for the care and use of laboratory animals. The C57B/L6 mice were injected subcutaneously with 5 × 10^6 B16-F10 cells in 100 µL of PBS into the forelimb of the animals under anesthesia with isoflurane. After 7–10 days, the B16F10 tumor-bearing mice were established and prepared for imaging and biodistribution when xenografts grew to 500–1000 mm^3.
(§2) PET scans were performed using a micro-PET/CT scanner (Inviscan, IRIS, Paris, France). [^68Ga]Ga-DOTA-M2pep (3.7 MBq) was administered to the B16F10 tumor-bearing mice (n = 4) via the tail vein. At 30 min, 1 h, and 2 h post-injection, the tumor-bearing mice were imaged with the micro-PET/CT scan under anesthesia with 2% isoflurane. Each scan was completed within 15 min. For the blocking scans, B16F10 tumor-bearing mice (n = 3) were pretreated with free M2pep (10 mM) in 100 μL saline by intravenous injection 60 min before administration of [^68Ga]Ga-DOTA-M2pep (3.7 MBq). Micro-PET/CT scans were acquired at 60 min post-injection as described above. The obtained images were reconstructed using three-dimensional ordered-subset expectation maximization (3D OSEM) and then processed using Osirix MD. Regions of interest (ROIs) were manually drawn over the tumor regions and organs, and quantitative analyses were calculated. Immunofluorescence staining was performed 24 h after micro-PET scan to determine the [^68Ga]Ga-DOTA-M2pep targeting efficiency. The harvested tumors were fixed with paraformaldehyde for 24 h, then were frozen and sectioned at 10 μm, followed by treatment with Fitc-M2pep, and staining with M2 TAMs marker PE-CD206 antibody and DAPI.

Data set [3] has as its system B16F10 tumor-bearing mice. The data set is described as follows: in vivo. Set-up: species or system C57B/L6 mice. The note with it: mouse. The protocol: as §1, §2

What is called tissue uptake is the percentage of the injected dose found per gram of tissue. Broadly, the amount remaining is what is left of the initial amount, in per cent. Low readings indicate more turnover, high ones less turnover.

Peptide text beside a SMILES is read from it. * marks the point of attachment. DOTA = O=C(O)CN1CCN(CC(=O)O)CCN(CC(=O)*)CCN(CC(=O)O)CC1

With `CC(C)[C@H](NC(=O)CNC(=O)[C@H](Cc1c[nH]c2ccccc12)NC(=O)[C@@H]1CCCN1C(=O)[C@H](CC(=O)O)NC(=O)[C@H](CCC(N)=O)NC(=O)[C@H](CCC(=O)O)NC(=O)[C@H](Cc1ccc(O)cc1)NC(=O)CN1CCN(CC(=O)O)CCN(CC(=O)O)CCN(CC(=O)O)CC1)C(=O)N[C@@H](CCCCN)C(=O)N[C@@H](Cc1c[nH]c2ccccc12)C(=O)N[C@@H](Cc1c[nH]c2ccccc12)C(=O)N[C@@H](Cc1ccc(O)cc1)C(=O)O` [[^68Ga]Ga-DOTA-M2pep, metal not drawn] ({DOTA}-YEQDPWGVKWWY-OH), in “in vivo [1]” (blood uptake), the tissue uptake at 5 min turned out to be 10.5 ± 2.2 %ID/g and the tissue uptake at 1 h was 1.84 ± 0.02 %ID/g. In addition, the tissue uptake at 5 min in “in vivo [1]” (kidney uptake (peak)) was found to be 12.7 ± 3.71 %ID/g. The tissue uptake at 1 h in “in vivo [1]” (liver uptake) was found to be 0.96 ± 0.02 %ID/g. In addition, in “in vivo [1]” (tumor uptake), the tissue uptake at 1 h turned out to be 3.35 ± 0.34 %ID/g and the tissue uptake at 2 h worked out at 3.12 ± 0.27 %ID/g. Besides, the share remaining at 2 h, 18.5 MBq/mL in “in vitro” was over 85%. Also, in “in vivo [2]”, the tissue to tissue ratio at 0.5 h came out at 3.19 ± 0.22, the tissue to tissue ratio at 2 h was 3.12 ± 0.83, the tissue uptake at 0.5 h came out at 2.72 ± 0.07 %ID/g and the tissue uptake at 1 h turned out to be 2.93 ± 0.2 %ID/g. Also, the tissue uptake at 2 h in the data set “in vivo [2]” was found to be 2.47 ± 0.13 %ID/g. Moreover, the “tumor/muscle ratio (PET)” value in data set [3] is 3.35 ± 0.27.

Values taken from paper PMC9697189, “Peptide-Based [^68Ga]Ga Labeled PET Tracer for Tumor Imaging by Targeting Tumor-Associated Macrophages” (Pharmaceutics, 2022).
